In publication PMC3282106:

Experiments:
Experiment in all cases: ITC
[1] = molecular target: T-Mod(Dss1A) (UniProt P31948)
[2] = molecular target: T-Mod(Dss1B) (UniProt P31948)
[3] = molecular target: the T-Mods

For “Dss1-C19 peptide mutant R57A (from UniProt P60896 52-70)”, the Kd [1] was 157 µM, the stoichiometry N [1] was 0.8 and the Kd [2] was 665 µM.

In the case of “Dss1-C19 peptide (from UniProt P60896 52-70)”, the Kd [1] is reported as 20.2 µM, the stoichiometry N [1] is reported as 0.8 and the Kd [2] is reported as 18.6 µM. For the same molecule, the stoichiometry N [2] was 1.1.

B1: Sem1 (natural protein)
chain: MSTDVAAAQAQSKIDLTKKKNEEINKKSLEEDDEFEDFPIDTWANGETIKSNAVTQTNIWEENWDDVEVDDDFTNELKAELDRYKRENQ
Molecule B1 has a Kd [3] of 175 µM.
